Data on 1 molecule can be found in patent US20040214282A1 (BOARD OF TRUSTEES OF THE UNIVERSITY OF ARKANSAS, published 2004).

The target in the assay is T1, recombinant I-domain of α2 integrin subunit (human, UniProt P17301 169-366).
T1 construct: domain: I-domain; Expressed from pQE30 and purified by Ni2+-chelating chromatography; also called α2-I domain
T1 sequence: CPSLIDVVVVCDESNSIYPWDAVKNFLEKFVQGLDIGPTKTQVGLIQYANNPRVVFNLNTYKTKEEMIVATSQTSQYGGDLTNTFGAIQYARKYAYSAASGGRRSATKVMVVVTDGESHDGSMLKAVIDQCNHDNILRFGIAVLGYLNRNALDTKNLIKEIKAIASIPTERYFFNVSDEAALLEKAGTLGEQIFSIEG
Put plainly: SPR (BIACORE 3000), P176 immobilized on a CM5 chip, α2-I as analyte, 1 mM MgCl2; Scatchard analysis of the equilibrium responses. A general note: SPR reads the build-up and loss of mass on a sensor chip optically.

B1: recombinant P176 (Scl1.41 recombinant protein) (other)
chain: EDSETATARTKLLEKLTELRSQSQDRVPQTSDITQAYTLWGTSYDSVELYKYLQQIEEYLQKQKYHEEQWKKEITDGLKSGALRGEKGEAGPQGEKGLPGLTGLPGLPGERGPRGPKGDRGETGAQGPVGPQGEKGEAGTPGKDGLRGPQGDPGAPGKDGAPGEKGDRGETGAQGPVGPQGEKGEAGTPGKDGAPGEKGEKGDRGETGATGAQGPQGEAGKDGAQGPVGPQGEKGETGAQGPAGPQGEKGETGAQGPAGPQGEAGQPGEKAPEKSPEVTPTPEMPEQPGEQAPEKSKEVTPAPEKWSHPQFEK
notes: Expressed in E. coli from pSL176 (scl1.M41 allele, GenBank AY452037); also called Scl P176
Broadly, the Kd is the constant that tells how readily two partners part at equilibrium. As to B1, the Kd was found to be 17 nM.
